Laboratory results from article PMC3170926 (Bioconjugate chemistry, 2011).
Like-named read-outs stand apart in the source and are kept apart here. Blank lines part the entries; values can stand above or below the molecule they belong to.

How the values were obtained:
[1] = cited from earlier work; for thermodynamic stability constant log K: Ga(III) complex
[2] = test system: integrin αvβ3 positive PC-3 tumor xenografts; set-up: species or system SCID mice; settings: mouse, in vivo
[3] = set-up: species or system SCID mice; settings: mouse, in vivo, tumor uptake
[4] = set-up: species or system SCID mice; settings: mouse, in vivo
[5] = test system: integrin αvβ3 positive PC-3 tumor xenografts; set-up: species or system SCID mice; settings: mouse, in vivo; remark: listed apart in the source
[6] = set-up: species or system SCID mice; settings: mouse, in vivo; remark: listed apart in the source
[7] = set-up: species or system SCID mice; settings: mouse, in vivo; remark: listed apart in the source
integrin αvβ3 = integrin αvβ3 (human (endogenous in U87MG), UniProt P06756 31-1048; P05106 27-788); experiment: radioligand binding
Chain of integrin αvβ3 (P06756 31-1048, chain 1 of 2): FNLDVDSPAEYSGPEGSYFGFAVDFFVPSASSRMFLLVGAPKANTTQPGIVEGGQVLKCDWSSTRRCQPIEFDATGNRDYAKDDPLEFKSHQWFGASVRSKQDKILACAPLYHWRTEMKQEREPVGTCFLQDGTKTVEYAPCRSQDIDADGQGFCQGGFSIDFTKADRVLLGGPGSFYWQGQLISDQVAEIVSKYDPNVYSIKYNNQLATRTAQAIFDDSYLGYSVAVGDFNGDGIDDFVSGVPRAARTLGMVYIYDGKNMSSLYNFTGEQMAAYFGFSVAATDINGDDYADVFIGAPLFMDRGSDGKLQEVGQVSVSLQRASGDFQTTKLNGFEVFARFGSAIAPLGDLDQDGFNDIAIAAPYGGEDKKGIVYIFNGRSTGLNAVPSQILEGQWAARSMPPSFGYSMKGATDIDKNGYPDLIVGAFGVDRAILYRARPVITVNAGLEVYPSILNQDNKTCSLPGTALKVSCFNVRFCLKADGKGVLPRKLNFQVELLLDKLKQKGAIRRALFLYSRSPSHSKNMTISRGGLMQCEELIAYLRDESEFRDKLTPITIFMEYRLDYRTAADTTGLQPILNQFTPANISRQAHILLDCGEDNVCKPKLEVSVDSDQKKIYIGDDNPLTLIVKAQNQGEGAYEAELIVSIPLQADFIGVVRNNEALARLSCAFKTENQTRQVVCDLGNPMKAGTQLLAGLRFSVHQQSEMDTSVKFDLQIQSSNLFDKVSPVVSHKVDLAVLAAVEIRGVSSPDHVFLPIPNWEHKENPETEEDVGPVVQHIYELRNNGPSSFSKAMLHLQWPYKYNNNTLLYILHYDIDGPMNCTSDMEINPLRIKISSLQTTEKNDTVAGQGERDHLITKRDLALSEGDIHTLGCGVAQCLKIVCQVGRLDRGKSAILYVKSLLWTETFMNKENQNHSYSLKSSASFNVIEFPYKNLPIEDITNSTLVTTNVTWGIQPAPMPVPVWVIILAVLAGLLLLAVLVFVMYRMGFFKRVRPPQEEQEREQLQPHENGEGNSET
Chain of integrin αvβ3 (P05106 27-788, chain 2 of 2): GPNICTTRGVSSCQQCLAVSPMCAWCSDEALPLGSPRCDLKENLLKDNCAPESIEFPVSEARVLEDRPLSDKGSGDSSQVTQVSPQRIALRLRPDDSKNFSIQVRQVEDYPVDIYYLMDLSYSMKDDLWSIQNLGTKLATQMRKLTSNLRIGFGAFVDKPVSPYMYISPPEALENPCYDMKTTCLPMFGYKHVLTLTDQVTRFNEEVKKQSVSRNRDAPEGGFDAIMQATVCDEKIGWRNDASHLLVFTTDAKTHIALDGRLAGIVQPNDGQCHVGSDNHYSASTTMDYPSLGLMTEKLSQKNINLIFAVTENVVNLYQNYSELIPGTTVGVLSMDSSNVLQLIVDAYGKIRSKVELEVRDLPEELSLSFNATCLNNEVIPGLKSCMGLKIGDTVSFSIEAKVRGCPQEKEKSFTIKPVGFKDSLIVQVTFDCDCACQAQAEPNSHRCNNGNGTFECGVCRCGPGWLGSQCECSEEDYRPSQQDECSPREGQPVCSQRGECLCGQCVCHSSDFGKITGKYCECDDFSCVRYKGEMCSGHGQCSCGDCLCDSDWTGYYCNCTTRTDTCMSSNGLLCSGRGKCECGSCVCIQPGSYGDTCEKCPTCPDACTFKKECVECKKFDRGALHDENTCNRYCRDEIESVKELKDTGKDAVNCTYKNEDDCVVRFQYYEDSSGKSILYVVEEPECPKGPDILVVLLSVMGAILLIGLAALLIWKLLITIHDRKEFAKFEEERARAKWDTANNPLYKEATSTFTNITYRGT

Molecule: O=C([O-])CN1CCN(CC(=O)[O-])CCN(CC(=O)O)CCN(CC(=O)[O-])CC1.[Ga+3] [DOTA complex with Ga(III)]
thermodynamic stability constant log K ([1]; ref 39): 21.33

Molecule: O=C([O-])CN1CCN(CC(=O)[O-])CCN(C(CC(=O)O)C(=O)[O-])CC1.[Ga+3] (stereo not shown) [Ga-NODASA]
thermodynamic stability constant log K ([1]; ref 24): 30.9

Molecule: N=C(N)NCCC[C@@H]1NC(=O)[C@H](CCCCNC(=S)Nc2ccc(C[C@H]3CN(CC(=O)O)CCN(CC(=O)O)CCN3CC(=O)O)cc2)NC(=O)[C@@H](Cc2ccc(O)cc2)NC(=O)[C@H](CC(=O)O)NC(=O)CNC1=O [^68Ga-1a, metal not drawn]
tumor uptake retention at 2 h p.i. [2]: 43%
tissue uptake at 2 h [3]: 1.4 ± 0.36 %ID/g
metabolites in urine by radio-HPLC [4]: no metabolites were detected
kidney uptake retained at 2 h p.i. [5]: less than 60%
tissue uptake at 0.5 h ([6]; kidney uptake): 6.25 ± 0.61 %ID/g
tissue uptake at 2 h ([6]; kidney uptake): 2.95 ± 0.76 %ID/g
tissue uptake at 0.5 h ([6]; liver uptake): 1.98 ± 0.29 %ID/g
tissue uptake at 2 h ([6]; tumor uptake): 1.63 ± 0.19 %ID/g
half-life ([7]; t1/2(α), distribution half-life): 4 ± 1.1 min
half-life ([7]; t1/2(β), terminal half-life): 29.8 ± 7.1 min

Molecule: O=C([O-])CN1CCN(CC(=O)[O-])CCN(CC(=O)[O-])CC1.[Ga+3] [Ga(III)-NOTA complex]
acid-catalyzed dissociation ([1]; 6N HNO3 for 6 days): stay inert against the acid-catalyzed dissociation
thermodynamic stability constant log K ([1]; ref 22, 24): 30.98
thermodynamic stability constant log K ([1]; ref 24): 30.98

IC50 (integrin αvβ3): 204 nM
Molecule: cyclo(RGDYK) (not fully specified (residue 4)) [c(RGDyK) peptide]
